According to US10098865B2, “Multi-arm polymeric prodrug conjugates of taxane-based compounds” (Nektar Therapeutics, priority 2010, dated 2018):

Experiment: Maximum Tolerated Dose (MTD) study of d9-docetaxel conjugates in athymic mice
Type: in vivo, female athymic nu/nu mice
Conditions: for Body Weight Nadir / Body Weight Nadir (day): day of nadir / Treatment-Related Deaths: female athymic nu/nu mice, qwk x 3; for MTD (maximum tolerated dose), estimated: athymic nu/nu mice, qwk×3, iv, dose refers to d9-docetaxel content
Protocol: MTD for 4-arm-PEG20K-CM-glycine-d9-docetaxel and 4-arm-PEG20K-BA-d9-docetaxel were determined in female athymic nu/nu mice using standard methods. For all test compounds, the dose refers to the d9-docetaxel content. d9-Docetaxel solutions were prepared in D5W containing 7.5% Tween 80:7.5% ethanol. PEG-d9-docetaxel conjugates were prepared in D5W. The administration volume for all test articles was 10 mL/kg. Mice were observed daily for clinical signs and body weights were recorded on days 1-5 and then biweekly until the end of study. Any individual animal with a single observation of greater than 30% body weight loss or three consecutive measurements of greater than 25% body weight loss was euthanized. For any group with two measurements of mean body weight loss of greater than 20%, dosing was stopped and recovery was allowed. Within a group with greater than 20% mean weight loss, individual animals greater than 30% body weight loss were euthanized. Compound dosing was terminated for any group in which mean weight loss exceeded 20% or >10% of animals died. Moribund animals were euthanized and all animals were euthanized at end of study.

[1] = 7.5 mg/kg (d9-docetaxel content) iv
[2] = 30 mg/kg (d9-docetaxel content) iv
[3] = N=5, 7.5 mg/kg (d9-docetaxel content) iv
[4] = N=5, 15 mg/kg (d9-docetaxel content) iv
[5] = N=5, 30 mg/kg (d9-docetaxel content) iv
[6] = 15 mg/kg (d9-docetaxel content) iv

[2H]C([2H])([2H])C(OC(=O)N[C@@H](c1ccccc1)[C@@H](O)C(=O)O[C@H]1C[C@@]2(O)[C@@H](OC(=O)c3ccccc3)C3C(C)(C(=O)[C@H](O)C(=C1C)C2(C)C)[C@@H](O)CC1OC[C@]13OC(C)=O)(C([2H])([2H])[2H])C([2H])([2H])[2H] (stereo partly drawn) [Docetaxel-d9, d9-Docetaxel]
Body Weight Nadir (25 mg/kg iv): −17.7% | Body Weight Nadir (day): day of nadir (25 mg/kg iv): 21 days | Treatment-Related Deaths (N=5, 25 mg/kg iv): 0

4-ARM-PEG20K-Butanoate-Linked d9-Docetaxel Conjugate [4ARM-PEG20K-BA-d9-DOC]
MTD (maximum tolerated dose), estimated: 20 mg/kg | Body Weight Nadir [1]: −0.6% | Body Weight Nadir (day): day of nadir [1]: 2 days | Body Weight Nadir [2]: −21.0% | Body Weight Nadir (day): day of nadir [2]: 21 days | Treatment-Related Deaths [3]: 0 | Treatment-Related Deaths [4]: 0 | Treatment-Related Deaths [5]: 0

4-ARM-PEG20K-Glycinate-Linked d9-Docetaxel Conjugate [4ARM-PEG20K-CM-GLY-d9-DOC]
MTD (maximum tolerated dose), estimated: 20 mg/kg | Body Weight Nadir [1]: −1.6% | Body Weight Nadir (day): day of nadir [1]: 2 days | Body Weight Nadir [6]: −4.2% | Body Weight Nadir (day): day of nadir [6]: 10 days | Body Weight Nadir [2]: −25.2% | Body Weight Nadir (day): day of nadir [2]: 21 days | Treatment-Related Deaths [3]: 0 | Treatment-Related Deaths [4]: 0 | Treatment-Related Deaths [5]: 0
